This note sets out measurements from PMC11980035, “Activation of automethylated PRC2 by dimerization on chromatin” (Molecular cell, 2024).

This assay addresses T1, Enhancer of zeste homolog 2 (EZH2), isoform 2, subunit of recombinant human PRC2, automethylated (human, UniProt Q15910-2 1-751, K510, K514 and K515 methylated to varying degrees (automethylation)).
T1 construct: EZH2 isoform 2, human, full-length; Stood in the assay as a subunit of PRC2; also called EZH2^dist; EZH2^prox; source: as subunit of m1: HighFive / Trichoplusia ni insect cells, baculovirus, purified within PRC2
The experiment in a line: cryo-EM structure; 800 nM automethylated PRC2 with 200 nM biotinylated nucleosome and 100 μM SAH in 25 mM HEPES pH 7.9, 50 mM KCl, 1 mM TCEP, 30 minutes at RT; nucleosome held on streptavidin affinity grids; classes of a PRC2 dimer and of a PRC2 monomer on the nucleosome. The following applies: both partners purified.

T1 sequence (Q15910 other isoform, or with tags, fused parts or gaps): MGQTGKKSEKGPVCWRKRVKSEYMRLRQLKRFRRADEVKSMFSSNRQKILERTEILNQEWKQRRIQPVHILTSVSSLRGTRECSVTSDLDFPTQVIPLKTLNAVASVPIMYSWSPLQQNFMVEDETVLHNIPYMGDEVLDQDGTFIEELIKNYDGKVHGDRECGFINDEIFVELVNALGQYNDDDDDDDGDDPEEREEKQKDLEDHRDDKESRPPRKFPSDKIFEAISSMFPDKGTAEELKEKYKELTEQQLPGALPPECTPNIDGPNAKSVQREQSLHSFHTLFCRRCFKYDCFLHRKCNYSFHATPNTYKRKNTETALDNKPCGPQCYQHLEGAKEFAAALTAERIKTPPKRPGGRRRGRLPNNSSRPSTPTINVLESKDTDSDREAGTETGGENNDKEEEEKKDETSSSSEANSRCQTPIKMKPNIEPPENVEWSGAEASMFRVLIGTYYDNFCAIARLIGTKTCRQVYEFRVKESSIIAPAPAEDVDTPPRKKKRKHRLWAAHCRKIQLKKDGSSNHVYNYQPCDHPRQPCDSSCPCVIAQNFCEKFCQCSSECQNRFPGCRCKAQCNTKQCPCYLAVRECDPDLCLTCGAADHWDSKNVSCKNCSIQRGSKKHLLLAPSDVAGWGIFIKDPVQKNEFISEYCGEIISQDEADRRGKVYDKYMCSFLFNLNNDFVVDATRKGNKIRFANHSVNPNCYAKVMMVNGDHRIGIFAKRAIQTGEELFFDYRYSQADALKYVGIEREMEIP

B1: Embryonic ectoderm development (EED), subunit of recombinant human PRC2 (natural protein)
chain: not shown
notes: EED, human, full-length; Stood in the assay as a subunit of PRC2; also called EED^prox; EED^dist; source: as subunit of m1: HighFive / Trichoplusia ni insect cells, baculovirus, purified within PRC2
With B1, the binding result is on record as “binds”.
